In US20030068675, “Position dependent recognition of GNN nucleotide triplets by zinc fingers” (published 2003):

Tests used:
Assay in all cases: EMSA
Conditions in all cases: tags: MBP fusion
ZFP SBS#368 = ZFP SBS#368 (synthetic)
In short: (§1)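 Purified ZFP was titrated against labeled double-stranded target (1 nM or lower, at least 10-fold below expected Kd) carrying the natural binding site with flanks. Binding buffer was 10 mM Tris pH 7.5, 100 mM KCl, 1 mM MgCl2, 0.1 mM ZnCl2, 5 mM DTT, 10% glycerol, 0.02% BSA, with equilibration for at least 45 min. Bound and free target were separated on a 10% polyacrylamide gel.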

ZFP SBS#438 = ZFP SBS#438 (synthetic)
In short: as §1

ZFP SBS#435 = target: T1, ZFP SBS#435 (synthetic)
T1 chain: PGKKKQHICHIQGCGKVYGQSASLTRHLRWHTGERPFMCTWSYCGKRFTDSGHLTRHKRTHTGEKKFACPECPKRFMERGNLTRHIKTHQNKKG
In short: as §1

ZFP SBS#434 = target: T2, ZFP SBS#434 (synthetic)
T2 chain: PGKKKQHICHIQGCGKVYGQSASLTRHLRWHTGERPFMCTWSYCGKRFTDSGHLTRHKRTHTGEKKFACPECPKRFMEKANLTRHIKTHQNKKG
In short: as §1

ZFP SBS#436 = ZFP SBS#436 (synthetic)
In short: as §1

ZFP SBS#437 = ZFP SBS#437 (synthetic)
In short: as §1

ZFP SBS#994 = ZFP SBS#994 (synthetic)
In short: as §1

ZFP SBS#939 = target: T3, ZFP SBS#939 (synthetic)
T3 chain: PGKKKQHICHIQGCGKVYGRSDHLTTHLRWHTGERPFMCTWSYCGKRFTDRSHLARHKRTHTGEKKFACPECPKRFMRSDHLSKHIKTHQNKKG
In short: as §1

ZFP SBS#940 = ZFP SBS#940 (synthetic)
In short: as §1

ZFP SBS#965 = target: T4, ZFP SBS#965 (synthetic)
T4 chain: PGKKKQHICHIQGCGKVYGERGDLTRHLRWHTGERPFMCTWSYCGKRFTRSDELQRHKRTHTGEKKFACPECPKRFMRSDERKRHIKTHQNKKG
In short: as §1

ZFP SBS#966 = target: T5, ZFP SBS#966 (synthetic)
T5 chain: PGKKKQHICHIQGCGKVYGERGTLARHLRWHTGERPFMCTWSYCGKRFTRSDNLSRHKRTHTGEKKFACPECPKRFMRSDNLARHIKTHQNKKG
In short: as §1

ZFP SBS#967 = target: T6, ZFP SBS#967 (synthetic)
T6 chain: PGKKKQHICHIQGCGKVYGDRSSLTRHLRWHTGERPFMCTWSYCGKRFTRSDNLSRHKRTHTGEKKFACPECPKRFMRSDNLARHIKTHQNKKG
In short: as §1

ZFP SBS#968 = target: T7, ZFP SBS#968 (synthetic)
T7 chain: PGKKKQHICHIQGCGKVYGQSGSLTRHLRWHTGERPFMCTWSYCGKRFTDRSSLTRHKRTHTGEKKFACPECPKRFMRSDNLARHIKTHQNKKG
In short: as §1

ZFP SBS#969 = target: T8, ZFP SBS#969 (synthetic)
T8 chain: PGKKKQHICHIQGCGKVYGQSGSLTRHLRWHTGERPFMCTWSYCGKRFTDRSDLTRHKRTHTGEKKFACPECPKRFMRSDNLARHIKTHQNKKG
In short: as §1

ZFP SBS#971 = target: T9, ZFP SBS#971 (synthetic)
T9 chain: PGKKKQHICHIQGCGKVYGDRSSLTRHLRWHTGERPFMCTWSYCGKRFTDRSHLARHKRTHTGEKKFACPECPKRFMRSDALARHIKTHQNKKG
In short: as §1

ZFP SBS#972 = target: T10, ZFP SBS#972 (synthetic)
T10 chain: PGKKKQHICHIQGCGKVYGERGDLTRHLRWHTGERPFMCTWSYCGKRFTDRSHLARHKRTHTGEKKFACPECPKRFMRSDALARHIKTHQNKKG
In short: as §1

ZFP SBS#970 = target: T11, ZFP SBS#970 (synthetic)
T11 chain: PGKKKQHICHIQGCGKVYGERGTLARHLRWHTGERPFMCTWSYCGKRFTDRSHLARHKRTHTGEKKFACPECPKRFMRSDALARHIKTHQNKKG
In short: as §1

ZFP SBS#974 = target: T12, ZFP SBS#974 (synthetic)
T12 chain: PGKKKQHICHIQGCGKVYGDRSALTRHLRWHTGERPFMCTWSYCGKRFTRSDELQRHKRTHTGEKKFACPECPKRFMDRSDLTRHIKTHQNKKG
In short: as §1

ZFP SBS#973 = target: T13, ZFP SBS#973 (synthetic)
T13 chain: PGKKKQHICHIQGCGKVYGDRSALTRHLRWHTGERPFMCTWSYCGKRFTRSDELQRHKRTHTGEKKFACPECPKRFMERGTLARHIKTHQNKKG
In short: as §1

ZFP SBS#975 = target: T14, ZFP SBS#975 (synthetic)
T14 chain: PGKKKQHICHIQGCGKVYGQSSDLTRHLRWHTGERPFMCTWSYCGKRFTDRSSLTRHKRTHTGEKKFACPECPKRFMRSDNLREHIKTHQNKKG
In short: as §1

ZFP SBS#976 = ZFP SBS#976 (synthetic)
In short: as §1

ZFP SBS#978 = target: T15, ZFP SBS#978 (synthetic)
T15 chain: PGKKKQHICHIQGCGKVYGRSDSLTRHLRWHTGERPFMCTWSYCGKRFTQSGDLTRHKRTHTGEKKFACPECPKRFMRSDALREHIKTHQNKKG
In short: as §1

ZFP SBS#977 = target: T16, ZFP SBS#977 (synthetic)
T16 chain: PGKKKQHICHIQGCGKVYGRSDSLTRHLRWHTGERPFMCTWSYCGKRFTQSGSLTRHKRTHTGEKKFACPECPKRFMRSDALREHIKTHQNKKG
In short: as §1

ZFP SBS#981 = target: T17, ZFP SBS#981 (synthetic, UniProt P08047)
T17 chain: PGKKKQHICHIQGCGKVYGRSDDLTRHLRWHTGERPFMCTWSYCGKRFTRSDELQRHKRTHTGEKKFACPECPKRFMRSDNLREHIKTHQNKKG
In short: as §1

ZFP SBS#982 = target: T18, ZFP SBS#982 (synthetic)
T18 chain: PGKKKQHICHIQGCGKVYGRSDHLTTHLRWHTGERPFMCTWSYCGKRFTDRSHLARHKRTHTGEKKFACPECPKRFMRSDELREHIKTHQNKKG
In short: as §1

ZFP SBS#983 = target: T19, ZFP SBS#983 (synthetic)
T19 chain: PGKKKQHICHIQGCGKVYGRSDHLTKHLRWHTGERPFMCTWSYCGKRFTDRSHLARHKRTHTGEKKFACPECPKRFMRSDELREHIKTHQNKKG
In short: as §1

ZFP SBS#985 = target: T20, ZFP SBS#985 (synthetic)
T20 chain: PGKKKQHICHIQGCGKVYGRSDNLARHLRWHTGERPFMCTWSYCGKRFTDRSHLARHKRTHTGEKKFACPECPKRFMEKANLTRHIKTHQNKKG
In short: as §1

ZFP SBS#984 = target: T21, ZFP SBS#984 (synthetic)
T21 chain: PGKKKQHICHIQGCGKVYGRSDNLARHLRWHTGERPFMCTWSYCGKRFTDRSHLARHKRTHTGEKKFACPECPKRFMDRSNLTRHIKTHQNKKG
In short: as §1

ZFP SBS#989 = target: T22, ZFP SBS#989 (synthetic)
T22 chain: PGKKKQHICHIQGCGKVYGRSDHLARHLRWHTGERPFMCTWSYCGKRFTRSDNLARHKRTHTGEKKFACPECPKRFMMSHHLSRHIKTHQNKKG
In short: as §1

ZFP SBS#991 = ZFP SBS#991 (synthetic)
In short: as §1

ZFP SBS#990 = target: T23, ZFP SBS#990 (synthetic, UniProt P08047)
T23 chain: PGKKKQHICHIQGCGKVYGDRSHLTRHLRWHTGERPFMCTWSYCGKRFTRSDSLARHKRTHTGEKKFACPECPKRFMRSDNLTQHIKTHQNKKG
In short: as §1

ZFP SBS#999 = ZFP SBS#999 (synthetic)
In short: as §1

ZFP SBS#997 = ZFP SBS#997 (synthetic)
In short: as §1

ZFP SBS#1001 = ZFP SBS#1001 (synthetic)
In short: as §1

ZFP SBS#1006 = ZFP SBS#1006 (synthetic)
In short: as §1

ZFP SBS#997 (synthetic), sequence (chain, as listed by the source): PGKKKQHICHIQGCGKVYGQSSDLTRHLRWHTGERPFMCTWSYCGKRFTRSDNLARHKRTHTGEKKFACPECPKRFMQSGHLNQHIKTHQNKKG
ZFP SBS#368 (synthetic), sequence (chain, as listed by the source): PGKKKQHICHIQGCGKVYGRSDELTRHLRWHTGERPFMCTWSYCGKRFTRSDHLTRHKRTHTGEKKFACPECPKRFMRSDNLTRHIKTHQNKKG
ZFP SBS#1001 (synthetic), sequence (chain, as listed by the source): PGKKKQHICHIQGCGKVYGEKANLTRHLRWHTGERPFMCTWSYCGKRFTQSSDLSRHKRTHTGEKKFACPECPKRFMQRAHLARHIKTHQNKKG
ZFP SBS#999 (synthetic), sequence (chain, as listed by the source): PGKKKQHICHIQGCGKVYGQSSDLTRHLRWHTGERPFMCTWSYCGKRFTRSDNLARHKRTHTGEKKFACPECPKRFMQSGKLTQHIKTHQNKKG
ZFP SBS#436 (synthetic), sequence (chain, as listed by the source): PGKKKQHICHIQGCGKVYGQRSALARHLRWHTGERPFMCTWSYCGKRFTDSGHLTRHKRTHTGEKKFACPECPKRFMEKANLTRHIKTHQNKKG
ZFP SBS#976 (synthetic), sequence (chain, as listed by the source): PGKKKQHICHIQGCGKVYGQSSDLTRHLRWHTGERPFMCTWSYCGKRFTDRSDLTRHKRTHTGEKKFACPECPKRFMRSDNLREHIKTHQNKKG
ZFP SBS#437 (synthetic), sequence (chain, as listed by the source): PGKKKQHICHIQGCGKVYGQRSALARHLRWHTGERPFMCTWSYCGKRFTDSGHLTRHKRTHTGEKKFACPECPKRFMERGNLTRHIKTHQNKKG
ZFP SBS#940 (synthetic), sequence (chain, as listed by the source): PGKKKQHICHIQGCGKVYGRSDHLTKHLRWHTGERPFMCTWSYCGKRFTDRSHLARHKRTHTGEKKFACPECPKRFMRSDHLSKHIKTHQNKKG
ZFP SBS#991 (synthetic), sequence (chain, as listed by the source): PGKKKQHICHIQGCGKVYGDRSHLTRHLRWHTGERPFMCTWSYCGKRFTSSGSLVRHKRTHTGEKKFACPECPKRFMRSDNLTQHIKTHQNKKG
ZFP SBS#1006 (synthetic), sequence (chain, as listed by the source): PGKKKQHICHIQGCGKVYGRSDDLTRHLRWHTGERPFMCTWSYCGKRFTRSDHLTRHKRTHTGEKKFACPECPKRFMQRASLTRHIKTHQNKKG

B1: GAGGGGGCG (dsDNA)
DNA 1: GAGGGGGCG
DNA 2: CGCCCCCTC
- Kd (ZFP SBS#368): 3.5 nM
- Kd (ZFP SBS#438): 62.5 nM

B2: GACGGCGTA (dsDNA)
DNA 1: GACGGCGTA
DNA 2: TACGCCGTC
- Kd (ZFP SBS#435): 150 nM
- Kd (ZFP SBS#434): 152 nM
- Kd (ZFP SBS#436): 95 nM
- Kd (ZFP SBS#437): 118 nM

B3: GGGGGCTGG (dsDNA)
DNA 1: GGGGGCTGG
DNA 2: CCAGCCCCC
- Kd (ZFP SBS#994): 0.03 nM
- Kd (ZFP SBS#939): 0.352 nM
- Kd (ZFP SBS#940): 1.5 nM

B4: GCGGCGGCC (dsDNA)
DNA 1: GCGGCGGCC
DNA 2: GGCCGCCGC
- Kd (ZFP SBS#965): 3.1 nM

B5: GAGGAGGCC (dsDNA)
DNA 1: GAGGAGGCC
DNA 2: GGCCTCCTC
- Kd (ZFP SBS#966): 0.028 nM
- Kd (ZFP SBS#967): 0.055 nM

B6: GAGGCCGCA (dsDNA)
DNA 1: GAGGCCGCA
DNA 2: TGCGGCCTC
- Kd (ZFP SBS#968): 1.4 nM
- Kd (ZFP SBS#969): 0.275 nM

B7: GTGGGCGCC (dsDNA)
DNA 1: GTGGGCGCC
DNA 2: GGCGCCCAC
- Kd (ZFP SBS#971): 0.144 nM
- Kd (ZFP SBS#972): 1.75 nM
- Kd (ZFP SBS#970): 1.86 nM

B8: GCCGCGGTC (dsDNA)
DNA 1: GCCGCGGTC
DNA 2: GACCGCGGC
- Kd (ZFP SBS#974): 0.038 nM
- Kd (ZFP SBS#973): 0.6 nM

B9: CAGGCCGCT (dsDNA)
DNA 1: CAGGCCGCT
DNA 2: AGCGGCCTG
- Kd (ZFP SBS#975): 1.1 nM
- Kd (ZFP SBS#976): 4.12 nM

B10: CTGGCAGTG (dsDNA)
DNA 1: CTGGCAGTG
DNA 2: CACTGCCAG
- Kd (ZFP SBS#978): 1.58 nM
- Kd (ZFP SBS#977): 0.017 nM

B11: CAGGCGGCG (dsDNA)
DNA 1: CAGGCGGCG
DNA 2: CGCCGCCTG
- Kd (ZFP SBS#981): 0.375 nM

B12: CCGGGCTGG (dsDNA)
DNA 1: CCGGGCTGG
DNA 2: CCAGCCCGG
- Kd (ZFP SBS#982): 0.03 nM
- Kd (ZFP SBS#983): 1.39 nM

B13: GACGGCGAG (dsDNA)
DNA 1: GACGGCGAG
DNA 2: CTCGCCGTC
- Kd (ZFP SBS#985): 0.965 nM
- Kd (ZFP SBS#984): 1.6 nM

B14: GGTGAGGGG (dsDNA)
DNA 1: GGTGAGGGG
DNA 2: CCCCTCACC
- Kd (ZFP SBS#989): 1.9 nM

B15: AAGGTGGGC (dsDNA)
DNA 1: AAGGTGGGC
DNA 2: GCCCACCTT
- Kd (ZFP SBS#991): 0.06 nM
- Kd (ZFP SBS#990): 5.35 nM

B16: AGAGAGGCT (dsDNA)
DNA 1: AGAGAGGCT
DNA 2: AGCCTCTCT
- Kd (ZFP SBS#999): 0.6 nM
- Kd (ZFP SBS#997): 1.65 nM

B17: GGAGCTGAC (dsDNA)
DNA 1: GGAGCTGAC
DNA 2: GTCAGCTCC
- Kd (ZFP SBS#1001): 1.8 nM

B18: GTAGGGGCG (dsDNA)
DNA 1: GTAGGGGCG
DNA 2: CGCCCCTAC
- Kd (ZFP SBS#1006): 0.898 nM
